Laboratory results reported in patent US20150246959A1 (US Dept. of Health and Human Services, published 2015).

Molecular target: MAGE-A3 full-length protein processed and presented by HLA-DP4 on cells (human)
Experiment: cell-based or functional assay

Sequence of MAGE-A3 full-length protein processed and presented by HLA-DP4 on cells (human) (P20036 29-260, chain 1 of 2): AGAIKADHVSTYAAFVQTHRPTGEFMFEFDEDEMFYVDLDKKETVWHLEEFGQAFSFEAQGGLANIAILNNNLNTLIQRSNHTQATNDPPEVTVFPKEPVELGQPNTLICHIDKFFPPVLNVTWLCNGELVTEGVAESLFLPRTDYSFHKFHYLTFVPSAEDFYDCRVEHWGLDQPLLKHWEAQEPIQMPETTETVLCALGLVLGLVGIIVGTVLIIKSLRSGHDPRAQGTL
Sequence of MAGE-A3 full-length protein processed and presented by HLA-DP4 on cells (human) (P43357 whole entry, chain 2 of 2, further chain): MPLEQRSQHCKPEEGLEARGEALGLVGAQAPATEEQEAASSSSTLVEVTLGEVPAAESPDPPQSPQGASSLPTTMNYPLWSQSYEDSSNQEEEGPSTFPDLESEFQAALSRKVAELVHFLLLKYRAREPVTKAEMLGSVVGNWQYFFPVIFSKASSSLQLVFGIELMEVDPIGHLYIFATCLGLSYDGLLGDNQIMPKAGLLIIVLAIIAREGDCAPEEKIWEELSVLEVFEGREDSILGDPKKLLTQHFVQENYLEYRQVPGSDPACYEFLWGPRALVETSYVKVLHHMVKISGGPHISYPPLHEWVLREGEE

Binder | fold increase in anti-tumor activity (IFN-gamma) against wt 6F9 TCR, CD4+ enriched PBL
a1 substituted 6F9 TCR (alpha chain S116A) (TCR, V domains shown) V domain 1: QTVTQSQPEMSVQEAETVTLSCTYDTSESDYYLFWYKQPPSRQMILVIRQEAYKQQNATENRFSVNFQKAAKSFSLKISDSQLGDAAMYFCALRASGTYKYIFGTGTRLKVLA V domain 2: GAGVSQSPSNKVTEKGKDVELRCDPISGHTALYWYRQSLGQGLEFLIYFQGNSAPDKSGLPSDRFSAERTGGSVSTLTIQRTQQEDSAVYLCASIRTGPFFSGNTIYFGEGSWLTVVE | ~2 fold
a2 substituted 6F9 TCR (alpha chain S117A) (TCR, V domains shown) V domain 1: QTVTQSQPEMSVQEAETVTLSCTYDTSESDYYLFWYKQPPSRQMILVIRQEAYKQQNATENRFSVNFQKAAKSFSLKISDSQLGDAAMYFCALRSAGTYKYIFGTGTRLKVLA V domain 2: GAGVSQSPSNKVTEKGKDVELRCDPISGHTALYWYRQSLGQGLEFLIYFQGNSAPDKSGLPSDRFSAERTGGSVSTLTIQRTQQEDSAVYLCASIRTGPFFSGNTIYFGEGSWLTVVE | ~2 fold
